Data published in patent publication US20250109187A1 (NOVAVAX, published 2025).

What was measured:
[1] = biological target: T1, EG.5.1 rS (SARS-CoV-2 variant EG.5.1, UniProt P0DTC2 14-1273)
[2] = biological target: T2, FL.1.5.1 rS (SARS-CoV-2 variant FL.1.5.1, UniProt P0DTC2 14-1273)
[3] = biological target: T3, SARS-CoV-2 Omicron XBB.1.5 rS (SARS-CoV-2 variant XBB.1.5, UniProt P0DTC2 14-1273)
[4] = biological target: T4, XBB.2.3 rS (SARS-CoV-2 variant XBB.2.3, UniProt P0DTC2 14-1273)
[5] = biological target: T5, XBB.1.16 rS (SARS-CoV-2 variant XBB.1.16, UniProt P0DTC2 14-1273)
[6] = biological target: T6, XBB.1.16.6 rS (SARS-CoV-2 variant XBB.1.16.6, UniProt P0DTC2 14-1273)
[7] = biological target: T1, EG.5.1 rS; experiment: ELISA: rS coated, mAb titrated, anti-mouse HRP
[8] = biological target: T2, FL.1.5.1 rS; experiment: ELISA: rS coated, mAb titrated, anti-mouse HRP
[9] = biological target: T3, SARS-CoV-2 Omicron XBB.1.5 rS; experiment: ELISA: rS coated, mAb titrated, anti-mouse HRP
[10] = biological target: T4, XBB.2.3 rS; experiment: ELISA: rS coated, mAb titrated, anti-mouse HRP
[11] = biological target: T5, XBB.1.16 rS; experiment: ELISA: rS coated, mAb titrated, anti-mouse HRP
[12] = biological target: T6, XBB.1.16.6 rS; experiment: ELISA: rS coated, mAb titrated, anti-mouse HRP

B1: NVX.324.6 (antibody, V domains shown)
VH: EVQLQQSGPELGKPGTSMKISCKASGYSFTGYTMNWVKQSHGKNLEWIGLINPYNGGTSYNQKFKDKATLTVDKSSSTAYMELLSLTSEDSAVYYCVREHYYYDSGYGGYYAMDYWGQGTSVTVSS
VL: QIVLSQSPAILSASPGDKVTMTCRASASVNYMYWYQQKPGSSPKPWIYATSNLASGVPARFSGSGSGTSYSLTISRVEAEDAAIYYCQQWSSNPYTFGGGTKLEIK
notes: also called mAb NVX.324.6
IC50 [1]: > 3 µg/mL
IC50 [2]: > 3 µg/mL
IC50 [3]: > 3 µg/mL
IC50 [4]: > 3 µg/mL
IC50 [5]: > 3 µg/mL
IC50 [6]: > 3 µg/mL
EC50 [7]: 0.018 µg/mL
EC50 [8]: 0.014 µg/mL
EC50 [9]: 0.03 µg/mL
EC50 [10]: 0.028 µg/mL
EC50 [11]: 0.027 µg/mL
EC50 [12]: 0.021 µg/mL

B2: NVX.62.12 (antibody, V domains shown)
VH: QVQLQQSGAELVRPGVSVKISCKGSGYTFTDYAMHWVKQSHAKSLEWIGVISTYSGDAYYNQKFKGKATVTVDKSSSTAYMELARLTSEDSAIYFCARNWDDYYAMDYWGQGTSVTVSS
VL: QIILSQSPAILSASPGERVTMTCRATSSVSYMHWYRQKPGSSPQPWIYATSNLASGVPARFSGSGSGTSYSLTISRVEAEDAATYYCQQWSGNPWTFGGGTKLEIK
notes: also called mAb NVX.62.12
IC50 [1]: > 3 µg/mL
IC50 [2]: > 3 µg/mL
IC50 [3]: > 3 µg/mL
IC50 [4]: > 3 µg/mL
IC50 [5]: > 3 µg/mL
IC50 [6]: > 3 µg/mL
EC50 [7]: 0.029 µg/mL
EC50 [8]: 0.021 µg/mL
EC50 [9]: 0.056 µg/mL
EC50 [10]: 0.067 µg/mL
EC50 [11]: 0.044 µg/mL
EC50 [12]: 0.063 µg/mL
